Here are results for seven variants from paper PMC5591402.

To fix the notation:
B1: wild-type N2 VHH antibody [camelid] / TAMRA-labeled α-synuclein peptide [modified: tetramethylrhodamine (TAMRA) fluorophore, position not stated; tetramethylrhodamine (TAMRA) fluorophore, position not stated] [not stated] (parent)
chain 1: GQLVESGGGSVQAGGSLRLSCAASGIDSSSYCMGWFRQRPGKEREGVARINGLGGVKTAYADSVKDRFTISRDNAENTVYLQMNSLKPEDTAIYYCAAKFSPGYCGGSWSNFGYWGQGTQVTVSSH
chain 2: GYQDYEPEA

The variants in this assay derive from B1. The assay is described as follows: fluorescence polarization. The note with it: with TAMRA-labeled α-synuclein peptide [modified: tetramethylrhodamine (TAMRA) fluorophore, 400 nM VHH, 2 nM TAMRA-labeled α-synuclein peptide, parent: 1, read off a plot.
On to chain 1 GQLVESGGGSVQAGGSLRLSCAASGIDSSSYCMGWFRQRPGKEREGVARINGLGAVKTAYADSVKDRFTISRDNAENTVYLQMNSLKPEDTAIYYCAAKFSPGYCGGSWSNFGYWGQGTQVTVSSH [chain 1 G55A], for which the ratio to parent amounted to 0.015.

As to chain 1 GQLVESGGGSVQAGGSLRLSCAASGIDSSSYCMGWFRQRPGKEREGVARANGLGGVKTAYADSVKDRFTISRDNAENTVYLQMNSLKPEDTAIYYCAAKFSPGYCGGSWSNFGYWGQGTQVTVSSH [chain 1 I50A], the ratio to parent was found to be 0.41.

In the case of chain 1 GQLVESGGGSVQAGGSLRLSCAASGIDSSSYCMGWFRQRPGKEREGVARINGLGGVATAYADSVKDRFTISRDNAENTVYLQMNSLKPEDTAIYYCAAKFSPGYCGGSWSNFGYWGQGTQVTVSSH [chain 1 K57A], the ratio to parent came to 0.1.

As to chain 1 GQLVESGGGSVQAGGSLRLSCAASGIDSSSYCMGWFRQRPGKEREGVARIAGLGGVKTAYADSVKDRFTISRDNAENTVYLQMNSLKPEDTAIYYCAAKFSPGYCGGSWSNFGYWGQGTQVTVSSH [chain 1 N51A], the ratio to parent amounted to 0.015.

chain 1 GQLVESGGGSVQAGGSLRLSCAASGIDSSSYCMGWFRQRPGKEREGVARINALGGVKTAYADSVKDRFTISRDNAENTVYLQMNSLKPEDTAIYYCAAKFSPGYCGGSWSNFGYWGQGTQVTVSSH [chain 1 G52A]: the ratio to parent is -0.01.

For chain 1 GQLVESGGGSVQAGGSLRLSCAASGIDSSSYCMGWFRQRPGKEREGVARINGLGGVKTAYADSVKDRFTISRDNAENTVYLQMNSLKPEDTAIYYCAAKFSPGACGGSWSNFGYWGQGTQVTVSSH [chain 1 Y104A], the ratio to parent worked out at 0.07.

With chain 1 GQLVESGGGSVQAGGSLRLSCAASGIDSSSYCMGWFRQRPGKEREGVARINGLGGVKTAYADSVKDRFTISRDNAENTVYLQMNSLKPEDTAIYYCAAKFSPGYCGGSASNFGYWGQGTQVTVSSH [chain 1 W109A], the ratio to parent turned out to be 0.075.
